Results reported in patent publication US20220195015A1 (published 2022).

Biological target: SARS-CoV-2 spike receptor binding domain (RBD), wild type (SARS-CoV-2, UniProt P0DTC2 319-539)
Assay: ELISA on coated RBD protein

Binder | EC50
C096 (antibody, V domains shown) VH: EVQLVESGGGLVKPGGSLRLSCVASGFTFRNAWMNWVRQAPGKGLEWVGRIKANSDGGTIDYAEPVQGRFTISREDSRNSLYLQMNSLKTEDTAVYYCTTGPQYDDFGHSYIVDSWGPGTLVTVSS VL: DIVMTQSPLSLPVTLGEPASISCRSSQSLLHSNGFHFLEWYLQKPGQSPQLLIYVGSNRASGVPDRFSGSGSGTDFTLKISRVEAEDVGVYYCMQTLQTPLTFGGGTKVEIK | 5.18 ng/mL
C706 (antibody, V domains shown) VH: EVQLVESGGGLVKPGGSLRLSCAASGFTFSNVWMSWVRQAPGKGLEWVGRIKSKIDGGTTEYAAPVKGRFIISRDDSKNTLSLQMNSLKTEDTAVYYCTTDHGREPPVHWGQGTLVTVSS VL: EIVLTQSPGTLSLSPGERASLSCRARQSVYSNYLAWYQHKSGQAPRLLFYGASSRATDIPDRFSASGSGTDFTLTISRLEPEDFAVYYCLQYGPSPTFGPGTRLEIK | 73.5 ng/mL
C097 (antibody, V domains shown) VH: QVQLQESGPGLVKPSQTLSLTCTVSGGSISSGPYYWSWIRQHPGKGLEWIGYIYYSGSTYYNPSLKSRVTISVDTSKKQFSLNLNSVTAADTAVYYCARVWQYYDSTGSFDYWGQGTLVTVSS VL: DIVMTQSPLSLPVTPGEPASISCRSSRGLLHSNGYNYLDWYLQKPGQSPQLLIYLGSNRASGVPDRFSGSGSVTDFTLNISRVEAEDVGVYYCMQALQTPFTFGPGTKVDIK | 3.45 ng/mL
C707 (antibody, V domains shown) VH: EVQLVESGGGLVKPGGSLRLSCAASGFTFSSYSMNWVRQAPGKGLAWVSSISSSNNIIYYADSVKGRFTISRDDAKDSLYLHMKSLRADDTAVYFCARVPSWAPYQLLPGPFDYWGQGILVTVSS VL: IRMTQSPSSLSASVGDRVTITCQASQAIASYLSWYQHKPGRAPKLLIYDASNLEIGVPSRFSGSGSGTDFTFTISSLQSEDNATYYCQQYESLPGTFGGGTKVEIK | 26 ng/mL
C095 (antibody, V domains shown) VH: VQLVEAGGGVVQPGRSLRLSCAASGLAFSIYGMHWVRQAPGKGLEWVAIVAQDGSKKYYADSVKGRFTISRDNSKNTLYLEMNSLRTEDTAVYYCVKEGRPSDTVVVVAFDYWGQGSLVTVSS VL: DIQLTQSPSSLSASVGDRVTITCRASQSISNYLNWYQQKPGKAPKVIIYAASSLQSGVPSRFSGSGSGTDFTLTISSLQPEDFATYYCQQSHSIPRTFGQGTKVEIK | 1.1 ng/mL
C048 (antibody, V domains shown) VH: VQLQESGPGLVKPSETLSLTCAVSGGSVSSGNYYWNWIRQPPGKGLEWIGYIYYSGSTNYNPSLKSRVTISVDTSKNQFSLKLNSVTAADTAVYHCARETYYYDSSGYYISDAFDIWGQGTMVTVSS VL: not shown | 4.8 ng/mL
C049 (antibody, V domains shown) VH: QVQLQESGPGLVKPSETLSLTCTVSGGSVSSGTFYWSWIRQPPGKGLEWIGYIHYSGSTNYNPSLKSRVTISVDTSKNQFSLRLSSVTAADTAVYYCARESFYYDRSGYYGSDAFDIWGQGTMVTVSS VL: DIQMTQSPSTLSSSVGDRVTITCRASQNISRWLAWYQQKPGKAPKLLIYKASTLESGVPSRFSGSGSGTKFTLTISSLQPDDFATYYCQQYNSYLYTFGQGTKLEIK | 4.09 ng/mL
C704 (antibody, V domains shown) VH: VQLVESGGGVVQPGRSLRLSCAASGFTFSRYGMHWVRQAPGKGLEWVAVSSYDGSNEYYANSVKGRFTISRDNSKNTLYLQMNSLRAEDTAVYYCAKTGASYCGGDCPFHFDYWGQGTLVTVSS VL: IRMTQSPSSLSASVGDRVTITCQASQDINNYLNWYQQKPGKAPKLLIYDASDLETGVPSRFSGGGSGTDFTFTISSLQPEDIATYYCQHYNNLPITFGQGTRLEIK | 13.4 ng/mL
C044 (antibody, V domains shown) VH: EVQLVESGGGLVQPGGSLRLSCAASGFTFSSYSMNWVRQAPGKGLEWVSYISSSSSTIYYADSVKGRFTISRDNAKNSLYLQMNSLRDEDTAVYYCAREAHDGALTDYGDYLNWFDPWGQGTLVTVSS VL: SYELTQPPSVSVAPGKTARITCGGNNIGSKSVHWYQQKPGQAPVLVIYYDSDRPSGIPERFSGSNSGNTATLTISRVEAGDEADYYCQVWDSSSDHLYWVFGGGTKLTVL | 1820 ng/mL
C045 (antibody, V domains shown) VH: EVQLVESGGGLVQPGGSLRLSCAASGFTFSTYSMNWVRQAPGKGLEWVSYISSSSSTIHYADSVKGRFTISRDNAKNSLYLQMNSLRDEDTAVYYCAREAHDGALTDYGDYLNWFDPWGQGTLVTVSS VL: SYELTQPPSVSVAPGKTARITCGGTNIGSKNVHWYQQKPGQAPVLVIYYDNDRPSGIPERFSGSNSGNTATLTISRVEAGDEADYYCQVWDTTSDHFYWVFGGGTKLTVL | 7 ng/mL
C703 (antibody, V domains shown) VH: EVQLLESGGGLVQPGGSLRLSCAGSGFTFSHYALSWVRQAPGKGLEWVSCISGTGGNSHYADSVKGRFTSSRDNSKNILYLQMNSLRAEDTAVYFCAKGGDFWSGYLIPFDSWGQGTLVTVSS VL: SYELTQSPSVSVAPGKTARITCGGDSIGSKNVHWYQQKPGQAPVLVMYYDNDRPSGIPERFSGYNSGNTATLSISRVEAGDEADYYCLVWDGSGDPWVFGGGTKLTVL | 10.9 ng/mL
C046 (antibody, V domains shown) VH: EVQLVESGGGLAQPGRSLRLSCAASGFTFDDYAMHWVRQAPGKGLEWVSGINWNSGSLGYADSVKGRFTISRGIAKNSLYLQMNSLRPEDTAFYYCAKAGVRGIAAAGPDLNFDYWGQGTLVTVSS VL: EIVLTQSPATLSLSPGERATLSCRASQSVSSYLAWYQQKPGQAPRLLIYDASNRATGIPARFIGSGSGTDFTLTISSLEPEDFAVYYCQQRITFGQGTRLEIK | 4.02 ng/mL
C047 (antibody, V domains shown) VH: QVQLQESGPGLVKPSETLSLTCTVSGGSISSTTYYWDWIRQSPGKGLEWIGSIFYTGITYYSPSLKSRVTISVDTSKNQFSLRLNSMTAADTAVYYCARRLRQLWFGPWFDPWGQGTLVTVSS VL: QSALTQPPSASGSPGQSVTISCTGTRSDVGDYNYVSWYQQHPDKAPKLIIYEVTKRPSGVPDRFSGSKSGNTASLTVSGLQAEDEADYYCSSYAGSNNVMFGGGTKLTVL | 11.1 ng/mL
C710 (antibody, V domains shown) VH: QVQLQESGPGLVKPSETLSLTCIVSGGSINSTTYYWDWIRQSPGKGLEWIGSIFYTGITYYSPSLKTRVTISVDTSKNQFSLRLNSMTAADTAVYYCARRLRQLWFGPWFDPWGQGTLVTVSS VL: QSALTQPPSASGSPGQSVTISCTGTRSDVGDYNYVSWYQQHPDKAPKLIIFEVTKRPSGVPDRFSGSKSGNTASLTVSGLQAEDEADYYCSSYAGSSNVMFGGGTKLTVL | 17.8 ng/mL
C709 (antibody, V domains shown) VH: QVQLVQSGAEVRKPGASVKVSCMASGYTFNTYDINWVRQGTGQGLEWMGWMNPNSGNTGHAQKFQGRVAMTVNTSMNTAYMELSSLRSEDTAVYYCARGADMLNVAVGADFDYWGQGTLVTVSS VL: QSALTQPPSASGSPGQSVTISCTGTSSDVGGYNFVSWFQQHPGKAPKLMIYEVSKRPSGVPDRFSGSKSANTASLTVSGLQAEDEADYFCSSYAGSNNWVFGGGTKLTVL | 7.56 ng/mL
C098 (antibody, V domains shown) VH: EVQLVESGGGLIQPGGSLRLSCAASGFTVSSNYMSWVRQAPGKGLEWVSVIYSGGSTYYADSVKGRFTISRDNSKNTLYLQMNSLRAEDTAVYYCARDLYSSGGTDIWGQGTMVTVSS VL: not shown | 7.7 ng/mL
C099 (antibody, V domains shown) VH: EVQLVESGGGLIQPGGSLRLSCAASGITVSSNYMSWVRQAPGKGLEWVSVMYAGGSTFYADSVKGRFTISRDDSKNTLFLQMNSLRAEDTAIYYCARDLYSSGGTDIWGQGTMVTVSS VL: EIVLTQSPGTLSLSPGERATLSCRASQSIGSSYLAWYQQKPGLAPRLLIYGASRRATGIPDKFSGSGSGADFTLTISRLEPEDFAVYYCQQYGSSPGTFGQGTKVEIK | 2.45 ng/mL
C043 (antibody, V domains shown) VH: QLVQSGPEVKKPGTSVKVSCKASGFTFYNSAVQWVRQARGQRLEWVGWIVVGSGNTDYAQKFQERVTMTRDLSTNTAYMEVNSLRSEDTAVYYCAAPYCSGGTCLDGFDIWGQGTMVTVSS VL: EIVLTQSPGTLSLSPGERGTLSCRASQSVRSNYLAWYKQRPGQAPRLLVYGASSRATGIPDRFSGSGSGTDFTLTISRLEPEDFAVYYCQQYGSSPWTFGQGTKVEIK | 12.1 ng/mL
C708 (antibody, V domains shown) VH: EVQLVESGGGLVQPGGSLRLSCAASGFSFSTYWMSWVRQAPGKGLEWVADIKQDGSEKYFVDSVKGRFTISRDNAKNSLYLHLNSLRAEDTAVYYCAREMAGSGNYYWFGYGMDVWGQGTTVTVSS VL: IRMTQSPSSVSASVGDRVTITCRASQGISSWLAWYQQKPGKAPKLLIYAASSLQSGVPSRFSGSESGTDFTLTISSLQPEDFATYYCQQANSFPLTFGGGTKVEIK | 130 ng/mL
C054 (antibody, V domains shown) VH: EVQLVESGGGLIQPGGSLRLSCAASGFTVSNNYMSWVRQAPGKGLEWVSVIYSGGSTYDADSVKGRFTISRDNSKNTLYLQMNSLSAEDTAVYYCAREGDVEGYYDFWSGYSRDRYYFDYWGQGTLVTVSS VL: QSALTQPASVSGSPGQSITISCTGTSSDVGGYNYVSWYQQHPGKAPKLMIYDVSNRPSGVSNRFSGSKSGNTASLTISGLQAEDEADYYCSSYTSSSARVFGTGTKVTVL | 1.58 ng/mL
C052 (antibody, V domains shown) VH: EVQLVESGGGLIRPGGSLRLSCAASGFSVSNNYMSWVRQAPGKGLEWVSVIYSGGTTYYADSVKGRFNISRDNSKNTVYLQMNSLRAEDTAVYYCAREGDVEGYYDFWSGYSRDRYYFDYWGQGALVTVSS VL: QSALTQPASVSGSPGQSITISCTGTSSDVGGYNYVSWYQQHPGKAPKLMIYDVSNRPSGVSNRFSGSKSGNTASLTISGLQAEDEADYYCNSYTSNNTRVFGTGTKVTVL | 1.23 ng/mL
C144 (antibody, V domains shown) VH: EVQLVESGGGLIQPGGSLRLSCAASGFTVSNNYMSWVRQAPGKGLEWVSVIYSGGSTYYADSVKGRFTISRDKSKNTLYLQMNRLRAEDTAVYYCAREGEVEGYNDFWSGYSRDRYYFDYWGQGTLVTVSS VL: QSALTQPASVSGSPGQSITISCTGTSSDVGGYNYVSWYQQHPGKAPKLMIYDVSNRPSGVSNRFSGSKSGNTASLTISGLQAEDEADYYCSSYTSSSTRVFGTGTKVTVL | 1.83 ng/mL
